The values below come from IntAct's records for PubMed 35512704.

The chains are these.
B1: Speckle-type POZ protein (Homo sapiens), O43791 (parent)
chain: MSRVPSPPPPAEMSSGPVAESWCYTQIKVVKFSYMWTINNFSFCREEMGEVIKSSTFSSGANDKLKWCLRVNPKGLDEESKDYLSLYLLLVSCPKSEVRAKFKFSILNAKGEETKAMESQRAYRFVQGKDWGFKKFIRRDFLLDEANGLLPDDKLTLFCEVSVVQDSVNISGQNTMNMVKVPECRLADELGGLWENSRFTDCCLCVAGQEFQAHKAILAARSPVFSAMFEHEMEESKKNRVEINDVEPEVFKEMMCFIYTGKAPNLDKMADDLLAAADKYALERLKVMCEDALCSNLSVENAAEILILADLHSADQLKTQAVDFINYHASDVLETSGWKSMVVSHPHLVAEAYRSLASAQCPFLGPPRKRLKQS
partner: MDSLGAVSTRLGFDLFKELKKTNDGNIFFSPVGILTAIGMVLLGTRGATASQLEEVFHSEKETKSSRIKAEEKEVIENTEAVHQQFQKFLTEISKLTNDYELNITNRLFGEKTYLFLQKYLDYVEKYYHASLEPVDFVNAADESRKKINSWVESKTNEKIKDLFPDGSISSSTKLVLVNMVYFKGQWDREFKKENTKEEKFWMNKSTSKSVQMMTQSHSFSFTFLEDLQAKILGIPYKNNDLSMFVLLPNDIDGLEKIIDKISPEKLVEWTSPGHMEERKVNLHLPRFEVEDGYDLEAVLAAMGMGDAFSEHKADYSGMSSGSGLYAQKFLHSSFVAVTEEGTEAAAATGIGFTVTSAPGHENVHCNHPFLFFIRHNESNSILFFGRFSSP
B2: Speckle-type POZ protein (Homo sapiens), O43791 (parent)
chain: B1 chain
partner: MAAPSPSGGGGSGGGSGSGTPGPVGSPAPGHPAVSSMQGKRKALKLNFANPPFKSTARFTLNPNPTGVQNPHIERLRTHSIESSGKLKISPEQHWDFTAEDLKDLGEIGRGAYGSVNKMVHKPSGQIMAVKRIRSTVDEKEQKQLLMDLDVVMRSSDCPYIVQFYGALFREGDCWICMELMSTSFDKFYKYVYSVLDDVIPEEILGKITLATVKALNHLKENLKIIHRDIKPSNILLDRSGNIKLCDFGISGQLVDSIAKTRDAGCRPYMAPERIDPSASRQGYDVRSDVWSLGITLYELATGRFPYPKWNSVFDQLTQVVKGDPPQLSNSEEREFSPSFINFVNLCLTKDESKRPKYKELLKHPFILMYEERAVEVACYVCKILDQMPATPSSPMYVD
B3: Speckle-type POZ protein (Homo sapiens), O43791 (parent)
chain: B1 chain
partner: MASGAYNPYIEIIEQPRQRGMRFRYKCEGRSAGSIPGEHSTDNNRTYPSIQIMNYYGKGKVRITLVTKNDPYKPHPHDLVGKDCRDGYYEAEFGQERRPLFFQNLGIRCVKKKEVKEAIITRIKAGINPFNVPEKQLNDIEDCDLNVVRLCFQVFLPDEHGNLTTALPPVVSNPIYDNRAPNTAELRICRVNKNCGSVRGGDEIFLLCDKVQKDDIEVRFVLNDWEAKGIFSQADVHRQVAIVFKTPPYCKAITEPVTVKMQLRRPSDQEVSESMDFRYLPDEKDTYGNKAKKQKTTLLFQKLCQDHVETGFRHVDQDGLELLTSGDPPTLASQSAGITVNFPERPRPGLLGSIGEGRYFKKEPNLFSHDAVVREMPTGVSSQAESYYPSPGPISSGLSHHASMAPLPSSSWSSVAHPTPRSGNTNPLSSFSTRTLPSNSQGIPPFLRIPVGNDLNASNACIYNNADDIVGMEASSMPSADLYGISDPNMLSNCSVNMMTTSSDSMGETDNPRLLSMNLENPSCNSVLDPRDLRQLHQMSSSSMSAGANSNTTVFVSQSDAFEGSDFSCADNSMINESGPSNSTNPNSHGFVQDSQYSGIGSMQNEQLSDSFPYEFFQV
B4: Speckle-type POZ protein (Homo sapiens), O43791 (parent)
chain: B1 chain
partner: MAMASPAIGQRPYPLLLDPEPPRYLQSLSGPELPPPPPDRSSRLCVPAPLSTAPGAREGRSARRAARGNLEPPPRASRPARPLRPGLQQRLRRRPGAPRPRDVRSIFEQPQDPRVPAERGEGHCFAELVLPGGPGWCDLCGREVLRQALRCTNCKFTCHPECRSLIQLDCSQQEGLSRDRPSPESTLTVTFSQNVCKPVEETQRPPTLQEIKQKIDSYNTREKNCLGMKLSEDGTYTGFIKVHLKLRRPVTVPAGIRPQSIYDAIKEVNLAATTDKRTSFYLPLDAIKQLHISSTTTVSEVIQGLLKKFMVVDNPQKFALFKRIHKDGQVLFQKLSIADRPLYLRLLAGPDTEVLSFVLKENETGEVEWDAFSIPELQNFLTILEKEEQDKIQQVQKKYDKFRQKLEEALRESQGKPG
B5: Speckle-type POZ protein (Homo sapiens), O43791 (parent)
chain: B1 chain
partner: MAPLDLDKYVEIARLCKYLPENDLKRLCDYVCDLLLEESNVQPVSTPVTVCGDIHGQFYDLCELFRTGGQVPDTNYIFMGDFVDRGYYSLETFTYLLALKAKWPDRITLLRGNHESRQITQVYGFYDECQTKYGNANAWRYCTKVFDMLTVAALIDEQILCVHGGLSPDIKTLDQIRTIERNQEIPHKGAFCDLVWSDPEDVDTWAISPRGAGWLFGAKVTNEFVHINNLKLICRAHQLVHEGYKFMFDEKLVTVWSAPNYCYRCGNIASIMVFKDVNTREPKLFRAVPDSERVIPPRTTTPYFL
B6: Speckle-type POZ protein (Homo sapiens), O43791 (parent)
chain: B1 chain
partner: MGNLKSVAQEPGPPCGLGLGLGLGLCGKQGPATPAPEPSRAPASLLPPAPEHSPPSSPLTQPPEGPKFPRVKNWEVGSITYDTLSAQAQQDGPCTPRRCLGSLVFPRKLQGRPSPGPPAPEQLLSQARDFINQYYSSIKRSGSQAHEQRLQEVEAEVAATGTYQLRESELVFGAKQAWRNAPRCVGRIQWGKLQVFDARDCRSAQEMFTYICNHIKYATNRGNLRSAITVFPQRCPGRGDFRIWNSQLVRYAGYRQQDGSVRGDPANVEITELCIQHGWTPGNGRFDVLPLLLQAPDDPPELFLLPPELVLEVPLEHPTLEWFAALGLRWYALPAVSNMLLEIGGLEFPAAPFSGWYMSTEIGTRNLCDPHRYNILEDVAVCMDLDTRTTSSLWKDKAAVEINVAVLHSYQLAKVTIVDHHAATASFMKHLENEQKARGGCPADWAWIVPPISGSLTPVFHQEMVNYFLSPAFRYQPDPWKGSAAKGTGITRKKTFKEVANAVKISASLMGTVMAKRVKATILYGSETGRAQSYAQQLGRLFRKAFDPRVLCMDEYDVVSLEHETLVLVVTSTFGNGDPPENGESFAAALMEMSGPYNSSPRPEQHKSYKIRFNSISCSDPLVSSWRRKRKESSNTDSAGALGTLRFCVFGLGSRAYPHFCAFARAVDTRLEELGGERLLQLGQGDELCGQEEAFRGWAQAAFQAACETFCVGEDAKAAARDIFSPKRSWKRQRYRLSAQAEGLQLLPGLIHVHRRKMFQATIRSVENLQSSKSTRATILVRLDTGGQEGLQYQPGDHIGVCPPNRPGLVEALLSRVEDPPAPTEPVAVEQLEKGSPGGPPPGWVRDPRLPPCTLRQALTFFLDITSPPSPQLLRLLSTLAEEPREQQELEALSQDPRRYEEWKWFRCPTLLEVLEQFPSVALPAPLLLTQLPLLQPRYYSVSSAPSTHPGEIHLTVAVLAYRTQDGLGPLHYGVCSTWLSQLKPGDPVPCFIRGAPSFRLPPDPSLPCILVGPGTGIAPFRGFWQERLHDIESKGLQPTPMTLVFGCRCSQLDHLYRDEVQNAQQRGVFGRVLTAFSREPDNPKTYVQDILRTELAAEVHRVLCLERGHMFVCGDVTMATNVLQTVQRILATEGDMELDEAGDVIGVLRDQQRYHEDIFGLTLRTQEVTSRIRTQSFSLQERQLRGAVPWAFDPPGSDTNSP
B7: Speckle-type POZ protein (Homo sapiens), O43791 (parent)
chain: B1 chain
partner: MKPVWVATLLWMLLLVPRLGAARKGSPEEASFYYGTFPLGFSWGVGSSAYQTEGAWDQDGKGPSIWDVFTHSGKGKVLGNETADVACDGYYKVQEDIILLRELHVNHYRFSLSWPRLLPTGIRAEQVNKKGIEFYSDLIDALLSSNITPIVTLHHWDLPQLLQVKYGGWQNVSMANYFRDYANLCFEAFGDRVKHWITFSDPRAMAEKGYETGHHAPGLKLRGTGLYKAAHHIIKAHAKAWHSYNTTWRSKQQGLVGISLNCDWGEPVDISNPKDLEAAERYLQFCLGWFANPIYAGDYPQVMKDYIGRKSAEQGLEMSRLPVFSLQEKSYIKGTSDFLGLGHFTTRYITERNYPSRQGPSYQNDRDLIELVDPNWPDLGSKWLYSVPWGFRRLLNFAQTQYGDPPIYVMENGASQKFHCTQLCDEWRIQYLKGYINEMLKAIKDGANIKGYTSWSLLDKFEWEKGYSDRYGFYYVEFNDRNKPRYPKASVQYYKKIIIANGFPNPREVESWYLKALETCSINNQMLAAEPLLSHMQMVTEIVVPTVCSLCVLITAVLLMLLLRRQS

Variants of B1 are the subject of one test. The settings on record: with spb13_human SERPINB13, Q9UIV8.
Turning to F102C, the “effect of a mutation on the interaction” value was “with no effect”.

In the next test the parent is B1. The settings on record: with spb13_human SERPINB13, Q9UIV8. This is another data set of the same source.
For the variant F133V, the “effect of a mutation on the interaction” value is on record as “with no effect”.

In another test the parent is B1. The settings on record: with spb13_human SERPINB13, Q9UIV8. The source holds these as a separate data set.
Take F133L: the “effect of a mutation on the interaction” value is reported as “with no effect”.

In another test the parent is B1. The settings on record: with spb13_human SERPINB13, Q9UIV8. The source holds these as a separate data set.
As for Y87C, the “effect of a mutation on the interaction” value was “with no effect”.

Another test covers variants of B2. The settings on record: with mp2k4_human MAP2K4, P45985.
Take F102C: the “effect of a mutation on the interaction” value is listed as “with no effect”.

In another test the parent is B2. The settings on record: with mp2k4_human MAP2K4, P45985. This is another data set of the same source.
Consider Y87C, for which the “effect of a mutation on the interaction” value is recorded as “with no effect”.

The next test covers variants of B3. The settings on record: with rel_human REL.
Take F102C: the “effect of a mutation on the interaction” value was “with no effect”.

In the next test the parent is B3. The settings on record: with rel_human REL. This is another data set of the same source.
Take Y87C: the “effect of a mutation on the interaction” value is “with no effect”.

Variants of B3 are the subject of another test. The settings on record: with rel_human REL. This is another data set of the same source.
F133V: the “effect of a mutation on the interaction” value was “with no effect”.

Another test covers variants of B3. The settings on record: with rel_human REL. The source holds these as a separate data set.
For the variant F133L, the “effect of a mutation on the interaction” value is reported as “causing an interaction”.

Another test covers variants of B3. The settings on record: with rel_human REL. The source holds these as a separate data set.
With F133L, the “effect of a mutation on the interaction” value is “increasing interaction strength”.

Variants of B4 are the subject of the next test. The settings on record: with rasf5_human RASSF5, Q8WWW0.
Consider F102C, for which the “effect of a mutation on the interaction” value is listed as “with no effect”.

The variants in a further test derive from B4. The settings on record: with rasf5_human RASSF5, Q8WWW0. The source holds these as a separate data set.
With F133L, the “effect of a mutation on the interaction” value was “with no effect”.

In a further test the parent is B4. The settings on record: with rasf5_human RASSF5, Q8WWW0. The source holds these as a separate data set.
In the case of F133V, the “effect of a mutation on the interaction” value is listed as “with no effect”.

Variants of B4 are the subject of the next test. The settings on record: with rasf5_human RASSF5, Q8WWW0. This is another data set of the same source.
As to Y87C, the “effect of a mutation on the interaction” value is on record as “with no effect”.

Variants of B5 are the subject of another test. The settings on record: with ppp6_human PPP6C.
As for Y87C, the “effect of a mutation on the interaction” value was “with no effect”.

The variants in another test derive from B5. The settings on record: with ppp6_human PPP6C. The source holds these as a separate data set.
For the variant F102C, the “effect of a mutation on the interaction” value is listed as “with no effect”.

Variants of B5 are the subject of a further test. The settings on record: with ppp6_human PPP6C. The source holds these as a separate data set.
For the variant F133L, the “effect of a mutation on the interaction” value was “with no effect”.

A further test covers variants of B5. The settings on record: with ppp6_human PPP6C. This is another data set of the same source.
For the variant F133V, the “effect of a mutation on the interaction” value is “with no effect”.

Variants of B6 are the subject of the next test. The settings on record: with nos3_human NOS3, P29474.
As to Y87C, the “effect of a mutation on the interaction” value was “with no effect”.

The variants in another test derive from B6. The settings on record: with nos3_human NOS3, P29474. This is another data set of the same source.
Regarding F102C, the “effect of a mutation on the interaction” value is reported as “with no effect”.

Another test covers variants of B6. The settings on record: with nos3_human NOS3, P29474. This is another data set of the same source.
As for F133L, the “effect of a mutation on the interaction” value is on record as “with no effect”.

Variants of B6 are the subject of a further test. The settings on record: with nos3_human NOS3, P29474. The source holds these as a separate data set.
As to F133V, the “effect of a mutation on the interaction” value is listed as “with no effect”.

The variants in a further test derive from B7. The settings on record: with lctl_human LCTL.
With F133L, the “effect of a mutation on the interaction” value is listed as “with no effect”.
